Values belong to the binder of their own block, whether it stands above or below them.
Assays:
Assay in all cases: cell-based or functional assay
ADAMTS4 = target: T1, ADAMTS4 (human, UniProt O75173 213-685, limits assumed)
T1 sequence (looked up): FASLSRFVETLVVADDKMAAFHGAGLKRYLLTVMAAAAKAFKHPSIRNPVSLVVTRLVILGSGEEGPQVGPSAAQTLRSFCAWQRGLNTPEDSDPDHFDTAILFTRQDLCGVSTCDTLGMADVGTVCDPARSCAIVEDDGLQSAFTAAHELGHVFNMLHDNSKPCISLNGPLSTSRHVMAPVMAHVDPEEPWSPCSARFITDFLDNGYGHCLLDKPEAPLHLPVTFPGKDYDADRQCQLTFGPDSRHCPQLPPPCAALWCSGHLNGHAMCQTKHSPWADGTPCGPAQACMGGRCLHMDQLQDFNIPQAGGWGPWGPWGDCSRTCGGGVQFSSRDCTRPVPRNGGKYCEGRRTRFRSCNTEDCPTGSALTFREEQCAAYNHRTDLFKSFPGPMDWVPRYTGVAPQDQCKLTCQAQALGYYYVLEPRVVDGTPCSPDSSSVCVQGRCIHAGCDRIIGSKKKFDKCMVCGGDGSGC

ADAMTS5 = target: T2, ADAMTS5 (human, UniProt Q9UNA0 262-622, limits assumed)
T2 sequence (looked up): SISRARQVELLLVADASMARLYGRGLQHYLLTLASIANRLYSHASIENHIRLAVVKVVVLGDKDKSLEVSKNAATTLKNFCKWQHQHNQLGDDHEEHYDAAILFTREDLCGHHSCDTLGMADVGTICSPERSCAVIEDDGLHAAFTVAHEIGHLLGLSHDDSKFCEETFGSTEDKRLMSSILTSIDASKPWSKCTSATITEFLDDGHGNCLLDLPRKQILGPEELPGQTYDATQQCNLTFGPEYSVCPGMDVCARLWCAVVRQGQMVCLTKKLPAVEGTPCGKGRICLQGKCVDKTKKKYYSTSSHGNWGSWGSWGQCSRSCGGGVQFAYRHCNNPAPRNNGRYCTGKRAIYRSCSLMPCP

MMP1 = target: T3, MMP1 (human, UniProt P03956 100-469, limits assumed)
T3 sequence (looked up): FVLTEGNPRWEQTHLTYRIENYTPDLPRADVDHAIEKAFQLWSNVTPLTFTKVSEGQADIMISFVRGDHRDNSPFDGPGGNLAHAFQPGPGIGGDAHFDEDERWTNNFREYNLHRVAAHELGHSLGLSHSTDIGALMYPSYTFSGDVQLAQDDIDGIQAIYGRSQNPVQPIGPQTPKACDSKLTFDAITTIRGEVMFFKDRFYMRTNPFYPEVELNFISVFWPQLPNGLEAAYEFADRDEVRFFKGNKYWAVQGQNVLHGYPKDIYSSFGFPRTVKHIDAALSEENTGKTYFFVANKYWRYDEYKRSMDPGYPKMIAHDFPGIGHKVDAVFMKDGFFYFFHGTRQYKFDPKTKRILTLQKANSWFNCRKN

MMP8 = MMP8 (human, UniProt P22894 101-467, limits assumed)
MMP13 = MMP13 (human, UniProt P45452 104-471, limits assumed)
MMP2 = target: T4, MMP2 (human, UniProt P08253 110-660, limits assumed)
T4 sequence (looked up): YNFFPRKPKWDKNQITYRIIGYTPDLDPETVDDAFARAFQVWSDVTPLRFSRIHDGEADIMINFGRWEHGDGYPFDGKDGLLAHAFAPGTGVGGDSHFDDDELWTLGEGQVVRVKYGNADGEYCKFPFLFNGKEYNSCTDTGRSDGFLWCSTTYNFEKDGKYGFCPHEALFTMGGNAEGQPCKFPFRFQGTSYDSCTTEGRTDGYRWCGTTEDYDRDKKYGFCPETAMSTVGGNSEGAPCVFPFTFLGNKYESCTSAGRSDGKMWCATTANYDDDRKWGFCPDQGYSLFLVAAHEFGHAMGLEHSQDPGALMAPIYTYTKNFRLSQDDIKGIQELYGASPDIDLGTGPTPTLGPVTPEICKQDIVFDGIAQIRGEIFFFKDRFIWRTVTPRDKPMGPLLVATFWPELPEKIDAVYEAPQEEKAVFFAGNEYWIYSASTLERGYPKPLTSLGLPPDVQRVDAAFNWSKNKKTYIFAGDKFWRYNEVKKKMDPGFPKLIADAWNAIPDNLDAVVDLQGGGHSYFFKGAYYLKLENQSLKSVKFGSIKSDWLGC

MMP9 = MMP9 (human, UniProt P14780 107-707, limits assumed)
MMP3 = MMP3 (human, UniProt P08254 100-477, limits assumed)
Elastase = target: Elastase
Cathepsin G = target: T5, Cathepsin G (UniProt P08311 21-244)
T5 sequence (looked up): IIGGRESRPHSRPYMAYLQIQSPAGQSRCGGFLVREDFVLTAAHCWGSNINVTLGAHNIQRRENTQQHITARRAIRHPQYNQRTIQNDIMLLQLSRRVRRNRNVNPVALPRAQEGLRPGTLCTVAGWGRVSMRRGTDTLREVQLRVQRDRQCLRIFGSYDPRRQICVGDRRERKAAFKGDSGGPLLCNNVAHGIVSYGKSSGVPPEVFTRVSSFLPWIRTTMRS

MMP7 = target: T6, MMP7 (UniProt P09237 95-267, limits assumed)
T6 sequence (looked up): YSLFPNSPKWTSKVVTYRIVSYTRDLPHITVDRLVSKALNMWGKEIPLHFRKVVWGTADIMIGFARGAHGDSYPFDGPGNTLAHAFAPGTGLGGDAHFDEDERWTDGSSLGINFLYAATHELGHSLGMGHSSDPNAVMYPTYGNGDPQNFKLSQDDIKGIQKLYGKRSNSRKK

Chain of MMP8 (P22894 101-467 limits assumed): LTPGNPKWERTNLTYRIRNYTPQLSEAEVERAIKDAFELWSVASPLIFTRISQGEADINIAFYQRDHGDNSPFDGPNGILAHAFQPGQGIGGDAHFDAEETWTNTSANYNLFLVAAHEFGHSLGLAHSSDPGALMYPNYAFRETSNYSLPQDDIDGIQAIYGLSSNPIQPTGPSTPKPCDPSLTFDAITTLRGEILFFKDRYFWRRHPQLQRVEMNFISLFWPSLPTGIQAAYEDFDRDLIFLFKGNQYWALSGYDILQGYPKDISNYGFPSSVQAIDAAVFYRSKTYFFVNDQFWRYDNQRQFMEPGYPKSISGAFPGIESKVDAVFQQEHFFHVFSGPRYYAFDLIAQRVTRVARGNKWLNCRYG
Chain of MMP3 (P08254 100-477 limits assumed): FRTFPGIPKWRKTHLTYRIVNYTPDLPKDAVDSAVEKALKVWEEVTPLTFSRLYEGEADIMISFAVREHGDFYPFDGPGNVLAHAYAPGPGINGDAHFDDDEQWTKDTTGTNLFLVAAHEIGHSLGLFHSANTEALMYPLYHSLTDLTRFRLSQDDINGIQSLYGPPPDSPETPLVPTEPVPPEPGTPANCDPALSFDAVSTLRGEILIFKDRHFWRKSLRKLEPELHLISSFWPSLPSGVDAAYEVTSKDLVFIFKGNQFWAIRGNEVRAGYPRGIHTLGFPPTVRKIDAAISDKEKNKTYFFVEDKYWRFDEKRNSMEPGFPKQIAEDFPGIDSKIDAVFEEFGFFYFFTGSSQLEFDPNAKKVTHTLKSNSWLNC
Chain of MMP9 (P14780 107-707 limits assumed): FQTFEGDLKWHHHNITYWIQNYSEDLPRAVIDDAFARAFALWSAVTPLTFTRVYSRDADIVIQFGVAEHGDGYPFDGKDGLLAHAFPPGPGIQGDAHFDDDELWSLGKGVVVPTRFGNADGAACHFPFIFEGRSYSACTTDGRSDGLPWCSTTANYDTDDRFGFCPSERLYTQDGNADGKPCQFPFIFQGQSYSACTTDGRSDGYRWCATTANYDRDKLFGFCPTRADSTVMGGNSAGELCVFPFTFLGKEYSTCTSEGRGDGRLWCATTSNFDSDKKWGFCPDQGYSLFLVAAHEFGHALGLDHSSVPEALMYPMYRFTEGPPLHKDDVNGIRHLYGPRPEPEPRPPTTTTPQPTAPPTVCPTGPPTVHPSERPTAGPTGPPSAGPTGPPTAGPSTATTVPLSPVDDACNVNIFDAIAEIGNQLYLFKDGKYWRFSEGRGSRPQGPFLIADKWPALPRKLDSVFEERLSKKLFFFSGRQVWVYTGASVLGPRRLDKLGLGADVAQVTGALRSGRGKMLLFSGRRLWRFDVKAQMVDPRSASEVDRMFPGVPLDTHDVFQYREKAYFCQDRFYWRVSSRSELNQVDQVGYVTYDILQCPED

Protease Inhibition (% of WT) (ADAMTS4): 104 % of WT | Protease Inhibition (% of WT) (ADAMTS5): 316 % of WT | Protease Inhibition (% of WT) (MMP1): 68 % of WT | Protease Inhibition (% of WT) (MMP8): 54 % of WT | Protease Inhibition (% of WT) (MMP13): 93 % of WT | Protease Inhibition (% of WT) (MMP2): 42 % of WT | Protease Inhibition (% of WT) (MMP9): 30 % of WT | Protease Inhibition (% of WT) (MMP3): 265 % of WT | Protease Inhibition (% of WT) (Elastase): 92 % of WT | Protease Inhibition (% of WT) (Cathepsin G): 78 % of WT | Protease Inhibition (% of WT) (MMP7): 75 % of WT
B1: Variant A2M, bait region SEQ ID NO 22 (other)
chain: SVSGKPQYMVLVPSLLHTETTEKGCVLLSYLNETVTVSASLESVRGNRSLFTDLEAENDVLHCVAFAVPKSSSNEEVMFLTVQVKGPTQEFKKRTTVMVKNEDSLVFVQTDKSIYKPGQTVKFRVVSMDENFHPLNELIPLVYIQDPKGNRIAQWQSFQLEGGLKQFSFPLSSEPFQGSYKVVVQKKSGGRTEHPFTVEEFVLPKFEVQVTVPKIITILEEEMNVSVCGLYTYGKPVPGHVTVSICRKYSDASDCHGEDSQAFCEKFSGQLNSHGCFYQQVKTKVFQLKRKEYEMKLHTEAQIQEEGTVVELTGRQSSEITRTITKLSFVKVDSHFRQGIPFFGQVRLVDGKGVPIPNKVIFIRGNEANYYSNATTDEHGLVQFSINTTNVMGTSLTVRVNYKDRSPCYGYQWVSEEHEEAHHTAYLVFSPSKSFVHLEPMSHELPCGHTQTVQAHYILNGGTLLGLKKLSFYYLIMAKGGIVRTGTHGLLVKQEDMKGHFSISIPVKSDIAPVARLLIYAVLPTGDVIGDSAKYDVENCLANKVDLSFSPSQSLPASHAHLRVTAAPQSVCALRAVDQSVLLMKPDAELSASSVYNLLPEKDLTGFPGPLNDQDDEDCINRHNVYINGITYTPVSSTNEKDMYSFLEDMGLKAFTNSKIRKPKMCPQLEHGPEGEGEGEFRGVTIPENFFGVPRYLTASEDLVVQISELEGRGSPHTKLRKYFPETWIWDLVVVNSAGVAEVGVTVPDTITEWKAGAFCLSEDAGLGISSTASLRAFQPFFVELTMPYSVIRGEAFTLKATVLNYLPKCIRVSVQLEASPAFLAVPVEKEQAPHCICANGRQTVSWAVTPKSLGNVNFTVSAEALESQELCGTEVPSVPEHGRKDTVIKPLLVEPEGLEKETTFNSLLCPSGGEVSEELSLKLPPNVVEESARASVSVLGDILGSAMQNTQNLLQMPYGCGEQNMVLFAPNIYVLDYLNETQQLTPEIKSKAIGYLNTGYQRQLNYKHYDGSYSTFGERYGRNQGNTWLTAFVLKTFAQARAYIFIDEAHITQALIWLSQRQKDNGCFRSSGSLLNNAIKGGVEDEVTLSAYITIALLEIPLTVTHPVVRNALFCLESAWKTAQEGDHGSHVYTKALLAYAFALAGNQDKRKEVLKSLNEEAVKKDNSVHWERPQKPKAPVGHFYEPQAPSAEVEMTSYVLLAYLTAQPAPTSEDLTSATNIVKWITKQQNAQGGFSSTQDTVVALHALSKYGAATFTRTGKAAQVTIQSSGTFSSKFQVDNNNRLLLQQVSLPELPGEYSMKVTGEGCVYLQTSLKYNILPEKEEFPFALGVQTLPQTCDEPKAHTSFQISLSVSYTGSRSASNMAIVDVKMVSGFIPLKPTVKMLERSNHVSRTEVSSNHVLIYLDKVSNQTLSLFFTVLQDVPVRDLKPAIVKVYDYYETDEFAIAEYNAPCSKDLGNADYKDDDDKGASHHHHHH

Protease Inhibition (% of WT) (ADAMTS4): 176 % of WT | Protease Inhibition (% of WT) (ADAMTS5): 200 % of WT | Protease Inhibition (% of WT) (MMP1): 133 % of WT | Protease Inhibition (% of WT) (MMP8): 132 % of WT | Protease Inhibition (% of WT) (MMP13): 133 % of WT | Protease Inhibition (% of WT) (MMP2): 80 % of WT | Protease Inhibition (% of WT) (MMP9): 71 % of WT | Protease Inhibition (% of WT) (MMP3): 111 % of WT | Protease Inhibition (% of WT) (Elastase): 147 % of WT | Protease Inhibition (% of WT) (Cathepsin G): 145 % of WT | Protease Inhibition (% of WT) (MMP7): 191 % of WT
B2: Variant A2M, bait region SEQ ID NO 23 (other)
chain: SVSGKPQYMVLVPSLLHTETTEKGCVLLSYLNETVTVSASLESVRGNRSLFTDLEAENDVLHCVAFAVPKSSSNEEVMFLTVQVKGPTQEFKKRTTVMVKNEDSLVFVQTDKSIYKPGQTVKFRVVSMDENFHPLNELIPLVYIQDPKGNRIAQWQSFQLEGGLKQFSFPLSSEPFQGSYKVVVQKKSGGRTEHPFTVEEFVLPKFEVQVTVPKIITILEEEMNVSVCGLYTYGKPVPGHVTVSICRKYSDASDCHGEDSQAFCEKFSGQLNSHGCFYQQVKTKVFQLKRKEYEMKLHTEAQIQEEGTVVELTGRQSSEITRTITKLSFVKVDSHFRQGIPFFGQVRLVDGKGVPIPNKVIFIRGNEANYYSNATTDEHGLVQFSINTTNVMGTSLTVRVNYKDRSPCYGYQWVSEEHEEAHHTAYLVFSPSKSFVHLEPMSHELPCGHTQTVQAHYILNGGTLLGLKKLSFYYLIMAKGGIVRTGTHGLLVKQEDMKGHFSISIPVKSDIAPVARLLIYAVLPTGDVIGDSAKYDVENCLANKVDLSFSPSQSLPASHAHLRVTAAPQSVCALRAVDQSVLLMKPDAELSASSVYNLLPEKDLTGFPGPLNDQDDEDCINRHNVYINGITYTPVSSTNEKDMYSFLEDMGLKAFTNSKIRKPKMCPQLEHGPIPENFYGVEGEGLGIGSEDLVVQISELEGRGSVEEPHTKLRKYFPETWIWDLVVVNSAGVAEVGVTVPDTITEWKAGAFCLSEDAGLGISSTASLRAFQPFFVELTMPYSVIRGEAFTLKATVLNYLPKCIRVSVQLEASPAFLAVPVEKEQAPHCICANGRQTVSWAVTPKSLGNVNFTVSAEALESQELCGTEVPSVPEHGRKDTVIKPLLVEPEGLEKETTFNSLLCPSGGEVSEELSLKLPPNVVEESARASVSVLGDILGSAMQNTQNLLQMPYGCGEQNMVLFAPNIYVLDYLNETQQLTPEIKSKAIGYLNTGYQRQLNYKHYDGSYSTFGERYGRNQGNTWLTAFVLKTFAQARAYIFIDEAHITQALIWLSQRQKDNGCFRSSGSLLNNAIKGGVEDEVTLSAYITIALLEIPLTVTHPVVRNALFCLESAWKTAQEGDHGSHVYTKALLAYAFALAGNQDKRKEVLKSLNEEAVKKDNSVHWERPQKPKAPVGHFYEPQAPSAEVEMTSYVLLAYLTAQPAPTSEDLTSATNIVKWITKQQNAQGGFSSTQDTVVALHALSKYGAATFTRTGKAAQVTIQSSGTFSSKFQVDNNNRLLLQQVSLPELPGEYSMKVTGEGCVYLQTSLKYNILPEKEEFPFALGVQTLPQTCDEPKAHTSFQISLSVSYTGSRSASNMAIVDVKMVSGFIPLKPTVKMLERSNHVSRTEVSSNHVLIYLDKVSNQTLSLFFTVLQDVPVRDLKPAIVKVYDYYETDEFAIAEYNAPCSKDLGNADYKDDDDKGASHHHHHH
